From US10568949B2, “Method of eliciting an anti-tumor immune response with controlled delivery of TLR agonists in porous polymerlc devices” (President and Fellows of Harvard College, priority 2008, dated 2020) come the findings set out here.

A short description of data set [1]: In vitro release / retention of GM-CSF, cytokines and TLR agonists from PLG scaffolds. It is filed as physicochemical. As for the experimental part: To determine the incorporation efficiency of CpG-ODN incorporation, PLG scaffolds were prepared with 50 ug of CpG-ODN and digested in 1 ml of chloroform (Sigma Aldrich, and washed with 2 mls of aqueous buffer. The aqueous phase was isolated and the amount of CpG-ODN incorporated was determined by absorbance readings (260/280 and 260/230 ratios calculated at 0.2 mm pathlength) using a Nanodrop instrument, ND1000 (Nanodrop technologies, Wilmington, Del.). Similarly, to determine CpG-ODN release kinetics CpG-ODN loaded scaffolds were placed in 1 ml of Phosphate Buffer Solution (PBS) in an incubator (37° C.). At various timepoints, the PBS release media was collected and replaced with fresh media. The total amount of CpG-ODN incorporated into PLG scaffolds and released into PBS over time was analyzed and recorded.

For another data set, the system named is host DCs. The data set can be described thus: In vivo DC emigration from FITC painted scaffolds to inguinal lymph nodes. The settings on record: mouse. Also noted: species or system C57BL/6J mice. The protocol:
Blank scaffolds and scaffolds containing GM-CSF with or without 10 μg PEI-ODN control (5′-tcc atg agc ttc ctg agc tt-3′) (SEQ ID NO: 6) or 10 μg PEI-CpG-ODN condensate loaded scaffolds were implanted into subcutaneous pockets on the back of 7-9 week old male C57BL/6J mice. For histological examination scaffolds were excised and fixed in Z-fix solution, embedded in paraffin, and stained with hematoxylin and eosin. To analyze DC recruitment, scaffolds were excised and the ingrown tissue was digested into single cell suspensions using a collagenase solution (Worthingtion, 250 U/ml) that was agitated at 37° C. for 45 minutes. The cell suspensions were then poured through a 40 μm cell strainer to isolate cells from scaffold particles and the cells were pelleted and washed with cold PBS and counted using a Z2 coulter counter (Beckman Coulter). The resultant cell populations were then stained with primary antibodies (BD Pharmingen, San Diego, Calif.) conjugated to fluorescent markers to allow for analysis by flow cytometry. […] Cells were gated according to positive FITC, APC and PE using isotype controls, and the percentage of cells staining positive for each surface antigen was recorded. […]

The subject of a further data set is T cells. In words: T cell infiltration at PLG vaccine site (flow cytometry). It is filed as in vivo, C57BL/6J mice. The conditions noted are these: with tumor lysate and GM-CSF, day 12.
The test system of data set [2] is B16-F10 melanoma cells. In words: Example 7: prophylactic vaccination, B16-F10 melanoma. It is filed as in vivo, C57BL/6J mice. On the set-up: concentration or dose not given beside the values. The conditions noted are these: for survival rate: B16-F10 tumor lysates and GM-CSF, with or without TLR agonist, challenge at day 14.
For the next data set, the system named is B16-F10 cells. In words: Example 7: vaccination of mice lacking CD8(+) DCs. It is filed as in vivo. The conditions noted are these: vaccinated Batf3−/− mice. The protocol: C57BL/6 mice and Batf3−/− knockout mice (6-8-week-old female; Jackson Laboratories) were used in the studies described in Example 7.
Since PLG vaccines incorporating TLR agonists were capable of generating CD8(+) DC populations in situ, which correlated to potent anti-tumor CTL responses and survival (FIGS. 17A-D and 19A-F), studies were carried out to examine whether these cells were required to confer anti-tumor immunity in vivo. […] Wild-type and Batf3−/− mice were vaccinated with CpG-ODN loaded PLG vaccines and challenged with B16-F10 cells 14 days later. Vaccination of wildtype mice promoted complete protection against tumor growth and long-term survival (100% survival), as expected, but vaccinated Batf3−/− were not protected and tumor growth rates were similar to untreated, wild-type animals (FIG. 20A).

Data set [3] in a line: In vivo GM-CSF concentration in tissue around PLG implant. Also noted: species or system C57BL/6J mice. The settings on record: for GM-CSF concentration in surrounding tissue: peak.
In the next data set the test system is dendritic cells. The data set can be described thus: Example 8: DC recruitment and activation in cytokine loaded PLG matrices (FACS, day 7). The data set is classed as in vivo, C57BL/6J mice. As for the experimental part: To analyze DC recruitment by FACS analysis, scaffolds were excised and the ingrown tissue was digested into single cell suspensions using a collagenase solution (Worthingtion, 250 U/ml) that was agitated at 37° C. for 45 minutes. The cell suspensions were then poured through a 40 μm cell strainer to isolate cells from scaffold particles and the cells were pelleted and washed with cold PBS and counted using a Z2 coulter counter (Beckman Coulter). To assess, DC infiltration and activation, subsets of the total cell population isolated from PLG matrices were then stained with primary antibodies (BD Pharmingen, San Diego, Calif.) conjugated to fluorescent markers to allow for analysis by flow cytometry. APC-conjugated CD11c (dendritic cell marker), FITC-conjugated MHCII and PE-conjugated CD86 (B7, costimulatory molecule) stains were conducted for DC recruitment and activation analysis. To delineate the presence of the plasmacytoid DC subset, cells were also stained with APC-conjugated CD11c and PE-conjugated PDCA-1 (plasmacytoid DC marker). Cells were gated according to single positive FITC, APC and PE stainings using isotype controls. The percentage of cells staining positive for each surface antigen was recorded.

The next data set has as its system IL-12p70 and IFN-γ. The settings on record: tumor lysate and CpG-ODN. As for the experimental part:
To determine the in vivo IL-12p70 and IFN-γ concentration at the matrix implant site, adjacent tissue was excised and digested with tissue protein extraction reagent at Day 10 after implantation (Pierce). After centrifugation, the concentrations of IL-12 and IFN-γ, in the supernatant were then analyzed with ELISA (R&D systems), according to the manufacturer's instructions. To determine the generation of TRP-2-specific cytotoxic T lymphocytes, single cell suspensions were prepared at Day 10 from the spleens of mice immunized with PLG vaccines. These cells were initially stained with PE-H-2Kb/TRP2 pentamers (Sigma Aldrich), and subsequently stained with FITC-anti-CD8 and PE-CY7 CD3 mAb (mAb (BD Pharmingen, San Diego) before being analyzed using flow cytometry.

Data set [4] concerns TRP-2-specific cytotoxic T lymphocytes. In words: Example 8: TRP-2-specific cytotoxic T lymphocytes in spleens (Day 10). On the set-up: species or system C57BL/6J mice. The settings on record: mouse, in vivo.
Data set [5] relates to B16-F10 melanoma cells. The data set can be described thus: Example 8: therapeutic vaccination, B16-F10 melanoma. The conditions noted are these: vaccinated three days after tumor challenge. It is filed as in vivo, C57BL/6J mice.
Procedure: PLG scaffolds containing B16-F10 melanoma tumor lysates, 100 μg CpG-ODN in combination with 3 μg GM-CSF, Flt3L or CCL20 were implanted subcutaneously into the lower left flank of C57BL/6J mice to act as cancer vaccines. To assess PLG vaccine efficacy in the therapeutic setting, C57/BL6J mice were challenged with a subcutaneous injection of 5×10^5 B16-F10 melanoma cells (ATCC, Manassas, N.J.) in the back of the neck, and 3 days after tumor challenge PLG vaccines were implanted subcutaneously into the lower left flank. Animals were monitored for the onset of tumor growth (approximately 1 mm^3) and sacrificed for humane reasons when tumors grew to 20-25 mm (longest diameter).

Procedure for T cells: Blank PLG matrices and matrices containing 3000 ng of GM-CSF alone or in combination with either 1, 10, 50, or 100 μg of CpG-ODN (studies were also performed with tumor lysates copresented with either 3000 ng of GM-CSF or 100 μg of CpG-ODN alone or in combination) were implanted into subcutaneous pockets on the back of 7- to 9-week-old male C57BL/6J mice. For histological examination, scaffolds were excised and fixed in Z-fix solution (Anatech), embedded in paraffin, and stained with hematoxylin and eosin (H&E). To analyze DC recruitment, scaffolds were excised at various time points and digested the ingrown tissue into single-cell suspensions with a collagenase solution (250 U/ml; Worthington) that was agitated at 37° C. for 45 min. The cell suspensions were then poured through a 40-μm cell strainer to isolate cells from scaffold particles, and the cells were pelleted and washed with cold PBS and counted with a Z2 coulter counter (Beckman Coulter). […] To assess T cell infiltration, PE-Cy7-conjugated CD3 stains were performed in conjunction with APC-conjugated CD8a (CD8 T cells), FITC-conjugated CD4 (CD4 T cells), and PE-conjugated FoxP3 (Treg) and analyzed with flow cytometry. Cells were gated according to positive FITC, APC, and PE with isotype controls, and the percentage of cells staining positive for each surface antigen was recorded.

As for CpG-ODN 1826, in [1] (over 25 days), the “retained in the PLG matrices” value is reported as above 80%. The “increase in number of DCs recruited to matrices and subsequently dispersed to the lymph nodes” value with host DCs came to 6 fold. In addition, the “ratio of CD8 CTLs to FoxP3 Treg cells at vaccine site (factor)” value with T cells was around 25. Also, the survival rate in the data set on B16-F10 melanoma cells [2] was determined as 90%. In addition, the long-term survival with B16-F10 melanoma cells [2] (wildtype mice, CpG-ODN loaded PLG vaccines) worked out at 100%. In the data set on B16-F10 cells, the “decrease in TRP2 specific cytotoxic T cells at vaccine site vs wild-type” value came to 3 fold and the “protection against tumor growth” value is “not protected”.

B1: granulocyte macrophage colony stimulating factor (protein, UniProt P01587 18-141, looked up)
Granulocyte-macrophage …: APTRSPITVTRPWKHVEAIKEALNLLDDMPVTLNEEVEVVSNEFSFKKLTCVQTRLKIFEQGLRGNFTKLKGALNMTASYYQTYCPPTPETDCETQVTTYADFIDSLKTFLTDIPFECKKPGQK
notes: cytokine encapsulated in and released from PLG matrices to recruit DCs
For B1, the “incorporated cytokine released from scaffolds” value in data set [1] (by day 4, in vitro) is listed as “approximately 43%”. The “GM-CSF protein released from PLG matrices” value in data set [1] (by day 10, in vitro) is listed as “approximately 60%”. The “daily release of protein” value in [1] (over the next 23 days after day 4) was “approximately 0.9%”. Besides, the “bioactive GM-CSF load released from PLG matrices” value in data set [1] (within the first 5 days) is recorded as “approximately 60%”. The “day of secondary peak for GM-CSF in vivo” value in [3] (3000 ng dose) was found to be 5 days. In addition, in [3] (7000 ng dose), the “day of secondary peak for GM-CSF in vivo” value turned out to be 7 days. Also, the “GM-CSF concentration difference over no incorporated GM-CSF” value in data set [3] (12 hours post-implantation) is listed as above 30 fold. Also, the “period elevated GM-CSF levels were maintained” value in data set [3] (mouse, in vivo) is recorded as “approximately 10 days”. Moreover, the “GM-CSF concentration in surrounding tissue” value in [3] (12 hours post-implantation, 1-3 mm from implant site) was determined as 100 µg/mL. The “GM-CSF concentration in surrounding tissue” value in data set [3] (12 hours post-implantation, 3-5 mm from implant site) turned out to be 30 µg/mL. Also, the “ratio of CD8 CTLs to FoxP3 Treg cells at vaccine site (factor)” value with T cells is “almost even ratio”. Besides, in the data set on B16-F10 melanoma cells [2], the survival rate was found to be 10%. For the same molecule, the “DC recruitment relative to blank PLG matrices” value in the data set with dendritic cells (day 7) is recorded as above 5 fold. In addition, in the data set with dendritic cells (in combination with CpG-ODN), the “MHCII(+) and CD86(+) DCs of total DCs recruited” value is recorded as 54-66%; the “increase in total number of activated DCs relative to control matrices devoid of cytokines” value is listed as “Approximately 8 fold”; the “resident CD11c(+)PDCA-1(+) pDCs” value is “approximately 110,000”. Besides, in the data set on IL-12p70 and IFN-γ, the “increase in local concentration of IFN-γ over control scaffolds” value was around 6 fold and the “increase in local concentration of IL-12 over control scaffolds” value was “approximately 3 fold”. For the same molecule, the “Trp2 specific CTLs in spleens, higher than control vaccines” value in data set [4] is on record as around 4 fold. Besides, in the data set with B16-F10 melanoma cells [5], the long-term survival rate is listed as 88%.
